We go through one substance from publication PMC7547737.

Assay [1] has as its target FLAG-AKT^T308A (UniProt P31749). Description: co-IP; SK-Br3 cells transfected with FLAG-tagged AKT constructs, starved with U0126, treated with TZ 20 min, cross-linked with DSP; anti-FLAG magnetic beads, 3 h at 4 °C; Western blot, amounts normalised on precipitated protein and input.
The target in assay [2] is FLAG-AKT^T308D (UniProt P31749). The description is as above.

For “Ser/Thr-protein phosphatase 2A (PP2A)-catalytic subunit beta isoform (from UniProt P62714 1-309) (enzyme)”, the percent co-precipitated against wt AKT in assay [1] and in assay [2] was 60% in each case.
